# Literature values in patent US10507248B2, “Hydrophobic core carrier compositions for delivery of therapeutic agents, methods of making and using the same” (PharmaIn Corporation, priority 2005, dated 2019).
# B1: native EGF: native Epidermal Growth Factor with short biological half-life (protein, UniProt P01133 23-1207, looked up)
# Pro-epidermal growth factor: PQHWSCPEGTLAGNGNSTCVGPAPFLIFSHGNSIFRIDTEGTNYEQLVVDAGVSVIMDFHYNEKRIYWVDLERQLLQRVFLNGSRQERVCNIEKNVSGMAINWINEEVIWSNQQEGIITVTDMKGNNSHILLSALKYPANVAVDPVERFIFWSSEVAGSLYRADLDGVGVKALLETSEKITAVSLDVLDKRLFWIQYNREGSNSLICSCDYDGGSVHISKHPTQHNLFAMSLFGDRIFYSTWKMKTIWIANKHTGKDMVRINLHSSFVPLGELKVVHPLAQPKAEDDTWEPEQKLCKLRKGNCSSTVCGQDLQSHLCMCAEGYALSRDRKYCEDVNECAFWNHGCTLGCKNTPGSYYCTCPVGFVLLPDGKRCHQLVSCPRNVSECSHDCVLTSEGPLCFCPEGSVLERDGKTCSGCSSPDNGGCSQLCVPLSPVSWECDCFPGYDLQLDEKSCAASGPQPFLLFANSQDIRHMHFDGTDYGTLLSQQMGMVYALDHDPVENKIYFAHTALKWIERANMDGSQRERLIEEGVDVPEGLAVDWIGRRFYWTDRGKSLIGRSDLNGKRSKIITKENISQPRGIAVHPMAKRLFWTDTGINPRIESSSLQGLGRLVIASSDLIWPSGITIDFLTDKLYWCDAKQSVIEMANLDGSKRRRLTQNDVGHPFAVAVFEDYVWFSDWAMPSVMRVNKRTGKDRVRLQGSMLKPSSLVVVHPLAKPGADPCLYQNGGCEHICKKRLGTAWCSCREGFMKASDGKTCLALDGHQLLAGGEVDLKNQVTPLDILSKTRVSEDNITESQHMLVAEIMVSDQDDCAPVGCSMYARCISEGEDATCQCLKGFAGDGKLCSDIDECEMGVPVCPPASSKCINTEGGYVCRCSEGYQGDGIHCLDIDECQLGEHSCGENASCTNTEGGYTCMCAGRLSEPGLICPDSTPPPHLREDDHHYSVRNSDSECPLSHDGYCLHDGVCMYIEALDKYACNCVVGYIGERCQYRDLKWWELRHAGHGQQQKVIVVAVCVVVLVMLLLLSLWGAHYYRTQKLLSKNPKNPYEESSRDVRSRRPADTEDGMSSCPQPWFVVIKEHQDLKNGGQPVAGEDGQAADGSMQPTSWRQEPQLCGMGTEQGCWIPVSSDKGSCPQVMERSFHMPSYGTQTLEGGVEKPHSLLSANPLWQQRALDPPHQMELTQ
# modifications: Pro-epidermal growth factor
# Conditions: in vivo
molecule,measurement,value
B1,biological half-life,few minutes
